According to doi:10.1101/2020.10.30.362368 (bioRxiv, 2020):
Changes are numbered by the printed parent chain. Names may count otherwise.

B1: SmcR wild-type, untagged (Vibrio vulnificus quorum-sensing transcription factor) (natural protein)
chain: MDSIAKRPRTRLSPLKRKQQLMEIALEVFARRGIGRGGHADIAEIAQVSVATVFNYFPTREDLVDEVLNHVVRQFSNFLSDNIDLDLHAKENIANITNAMIELVVQDNHWLKVWFEWSASTRDEVWPLFVTTNRTNQLLVQNMFIKAIERGEVCDQHNPEDLANLFHGICYSLFVQANRTNNTAELSKLVSSYLDMLCIYKREHE
B2: SmcR N55I, untagged (natural protein)
chain: B1 chain with N55I
B3: PluxC site B (JDN55/JDN54) (dsDNA)
DNA 1: TTACTTATTTATAGTGTTACAAATAACATTA
DNA 2: TAATGTTATTTGTAACACTATAAATAAGTAA
B4: PluxC site D (site E mutated) (dsDNA)
DNA 1: TTTGTTAAATGTTATGACTAATTATAAATAAATCAAACGCGCGTTAGATT
DNA 2: AATCTAACGCGCGTTTGATTTATTTATAATTAGTCATAACATTTAACAAA
B5: PluxC site E (site D mutated) (dsDNA)
DNA 1: TTTGTTAAATGTTGCGCGTAATTATAAATAAATCAAACTATAATTAGATT
DNA 2: AATCTAATTATAGTTTGATTTATTTATAATTACGCGCAACATTTAACAAA

Tests used:
[1] = biological target: V. harveyi His-RNAP alpha (RNA polymerase alpha subunit) (Vibrio harveyi, UniProt A0A0B4IMU9 1-330); test: BLI
SmcR WT = biological target: T1, SmcR WT (Vibrio vulnificus, UniProt Q9L8G8 1-205); test: EMSA
T1 sequence: B1 chain

SmcR N55I = biological target: T2, SmcR N55I (Vibrio vulnificus, UniProt Q9L8G8 1-205, N55I); test: EMSA
T2 sequence: B1 chain with N55I

Binder	Kd [1]	binding result (SmcR WT)	binding result (SmcR N55I)
B1	0.142 µM		
B2	0.16 µM		
B3		binds	binds
B4		binds	
B5		binds	
